# B1: Nuclear receptor subfamily 0 group B member 2 (Homo sapiens), Q15466 (parent)
# chain: MSTSQPGACPCQGAASRPAILYALLSSSLKAVPRPRSRCLCRQHRPVQLCAPHRTCREALDVLAKTVAFLRNLPSFWQLPPQDQRRLLQGCWGPLFLLGLAQDAVTFEVAEAPVPSILKKILLEEPSSSGGSGQLPDRPQPSLAAVQWLQCCLESFWSLELSPKEYACLKGTILFNPDVPGLQAASHIGHLQQEAHWVLCEVLEPWCPAAQGRLTRVLLTASTLKSIPTSLLGDLFFRPIIGDVDIAGLLGDMLLLR
# Variants of: B1
# Settings: with mdm2_human MDM2, Q00987
# Sequence of mdm2_human MDM2, Q00987 (Q00987 whole entry, looked up): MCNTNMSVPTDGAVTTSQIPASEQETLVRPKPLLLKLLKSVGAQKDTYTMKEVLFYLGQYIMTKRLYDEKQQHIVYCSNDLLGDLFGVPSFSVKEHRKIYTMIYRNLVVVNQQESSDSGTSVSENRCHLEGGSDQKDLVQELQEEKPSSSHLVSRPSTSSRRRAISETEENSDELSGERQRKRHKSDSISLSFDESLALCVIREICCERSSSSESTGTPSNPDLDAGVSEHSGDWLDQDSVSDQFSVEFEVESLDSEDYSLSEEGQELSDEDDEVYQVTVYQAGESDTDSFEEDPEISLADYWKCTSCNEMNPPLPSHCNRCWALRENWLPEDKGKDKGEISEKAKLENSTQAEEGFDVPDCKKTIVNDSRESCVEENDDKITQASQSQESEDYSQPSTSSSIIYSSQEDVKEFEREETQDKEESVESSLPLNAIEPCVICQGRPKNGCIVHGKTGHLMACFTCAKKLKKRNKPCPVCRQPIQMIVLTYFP
row,effect of a mutation on the interaction,Variant
1,disrupting interaction,MSTSQPGACPCQGAASRPAILYALLSSSLKAVPRPRSRCLCRQHRPVQLCAPHRTCREALDVLAKTVAFLRNLPSFWQLPPQDQRRLLQGCWGPLFLLGLAQDAVTFEVAEAPVPSILKKILLEEPSSSGGSGQLPDRPQPSLAAVQWLQCCLESFWSLELSPKEYACLRGTILFNPDVPGLQAASHIGHLQQEAHWVLCEVLEPWCPAAQGRLTRVLLTASTLKSIPTSLLGDLFFRPIIGDVDIAGLLGDMLLLR [K170R]

# Variants of: B1
# Settings: with mdm2_human MDM2, Q00987
# Remark: another data set of the same source
row,effect of a mutation on the interaction,Variant
1,increasing interaction,MSTSQPGACPCQGAASRPAILYALLSSSLKAVPRPRSRCLCRQHRPVQLCAPHRTCREALDVLAKTVAFLRNLPSFWQLPPQDQRRLLQGCWGPLFLLGLAQDAVTFEVAEAPVPSILKKILLEEPSSSGGSGQLPDRPQPSLAAVQWLQCCLESFWSLELSPKEYACLNGTILFNPDVPGLQAASHIGHLQQEAHWVLCEVLEPWCPAAQGRLTRVLLTASTLKSIPTSLLGDLFFRPIIGDVDIAGLLGDMLLLR [K170N]
